The values that follow come from paper PMC3325211, “Mutations in MITF and PAX3 Cause “Splashed White” and Other White Spotting Phenotypes in Horses”.

For the series, the target named is MITF N310S (DNA-binding fragment) (UniProt Q95MD1 112-207, N149S). In words: EMSA; 5 mM MgCl2; 2.0 uM protein end point; reduced by about 80%; 20 mM Tris, 50 mM NaCl, 5 mM MgCl2, 1 mM DTT, 33 ug/ml BSA, pH 7.4, on ice 30 min; 6% native PAGE in 0.5x TBE. As to conditions: protein: recombinant; (Ni-NTA purified); chain copies: 2; label: radioactive label. (In general: A gel shift assay detects complexes by their altered migration in electrophoresis.)
MITF N310S (DNA-binding fragment), sequence (Q95MD1 entry or part of it N149S | N310S N310S): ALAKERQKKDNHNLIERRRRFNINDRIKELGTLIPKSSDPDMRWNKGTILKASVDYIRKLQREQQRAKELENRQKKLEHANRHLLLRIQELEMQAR

B1: M-box oligonucleotide (dsDNA)
DNA 1: GGAAAGTTAGTCATGTGCTTTTCAGAAGA
DNA 2: TCTTCTGAAAAGCACATGACTAACTTTCC
For the molecule B1, the binding signal was ~20 % of wild-type binding.
